{"source": "paper PMC11500415", "about": "“Chemical inhibition of stomatal differentiation by perturbation of the master-regulatory bHLH heterodimer via an ACT-Like domain” (Nature Communications, 2024)", "molecules": {"B1": {"name": "SCREAM (SCRM), recombinant full-length protein (1-494) (natural protein, A. thaliana, UniProt Q9LSE2 1-494, looked up)", "chain": "MGLDGNNGGGVWLNGGGGEREENEEGSWGRNQEDGSSQFKPMLEGDWFSSNQPHPQDLQMLQNQPDFRYFGGFPFNPNDNLLLQHSIDSSSSCSPSQAFSLDPSQQNQFLSTNNNKGCLLNVPSSANPFDNAFEFGSESGFLNQIHAPISMGFGSLTQLGNRDLSSVPDFLSARSLLAPESNNNNTMLCGGFTAPLELEGFGSPANGGFVGNRAKVLKPLEVLASSGAQPTLFQKRAAMRQSSGSKMGNSESSGMRRFSDDGDMDETGIEVSGLNYESDEINESGKAAESVQIGGGGKGKKKGMPAKNLMAERRRRKKLNDRLYMLRSVVPKISKMDRASILGDAIDYLKELLQRINDLHNELESTPPGSLPPTSSSFHPLTPTPQTLSCRVKEELCPSSLPSPKGQQARVEVRLREGRAVNIHMFCGRRPGLLLATMKALDNLGLDVQQAVISCFNGFALDVFRAEQCQEGQEILPDQIKAVLFDTAGYAGMI", "notes": "SCRM (ICE1), A. thaliana, residues 1-494; called full-length in the results; The methods describe thrombin removal of GST for all recombinant proteins; For the BLI runs of SCRM with MUTE one partner must have kept GST (anti-GST probes); also called ICE1; source: E. coli BL21, purified (glutathione resin, thrombin digestion, Superdex-200); not shown: GST, N-terminal, cleaved"}, "B2": {"name": "MUTE, recombinant full-length protein (1-202), as used in ITC (natural protein, A. thaliana, UniProt Q9M8K6 1-202, looked up)", "chain": "MSHIAVERNRRRQMNEHLKSLRSLTPCFYIKRGDQASIIGGVIEFIKELQQLVQVLESKKRRKTLNRPSFPYDHQTIEPSSLGAATTRVPFSRIENVMTTSTFKEVGACCNSPHANVEAKISGSNVVLRVVSRRIVGQLVKIISVLEKLSFQVLHLNISSMEETVLYFFVVKIGLECHLSLEELTLEVQKSFVSDEVIVSTN", "notes": "called full-length in the results; source: E. coli BL21, purified (glutathione resin, thrombin digestion, Superdex-200); not shown: GST, N-terminal, cleaved"}}, "key": {"[1]": {"tested_on": "Arabidopsis wild-type (WT) seedlings", "assay": "Stomatal development bioassay, seedlings in liquid culture", "assay_type": "in vivo", "conditions": "50 μM; WT seedlings, liquid culture", "procedure": "Arabidopsis accession Columbia (Col-0) was used as wild-type. […] Their genotype and transcript reduction were confirmed. The presence of transgenes/mutant alleles were confirmed by genotyping. For liquid culture with Stomidazolone (AYSJ929, compound 3), the analogs (AYSJ1059 (compound 5) and AYSJ1061 (compound 6)), degraded compound lzx103 (compound 4), and SIM3* (compound 7), all compounds were dissolved in dimethyl sulfoxide (DMSO, Molecular biology grade, Fujifilm Wako, Japan 046-21981), Col-0 seeds were sown in 96-well plates (TL5003; True Line) containing 95 μL of 1/2 MS media containing 0.5% sucrose with rotary shaking at 140 rpm under continuous light at 22 °C. Five μL of compounds were dissolved in DMSO at 10 mM and diluted with liquid 1/2 MS media to 1 mM and added on 1-day-old seedlings (final concentration, 50 μM). Seedlings were incubated for 8 days, and at day 9 seedling abaxial cotyledons were observed through confocal microscopy. For liquid culture of scrm-D_S343 and scrm-D_S423, 1/2 MS liquid media without sucrose was used. For the solid culture, 0, 20, 50 or 100 μM Stomidazolone were solidified with low-melting agarose (5805S, PrimeGelTM Agarose LMT 1-20 K, TAKARA Bio). Briefly, 1/2 MS salt, 0.5% sucrose, and 0.8% low melting agarose were mixed in water and autoclaved. After cooling the medium at around 30 °C, Stomidazolone (500x, dissolved in DMSO) was added and poured into 90 mm petri dishes (Asnol Petri Dish JP φ90 x 15 mm, 3-1491-01, AS ONE). Col-0 seeds were sown on Stomidazolone-containing 1/2 MS agarose media and grown under continuous light for 9 days.\nFor confocal microscopy, cell peripheries of seedlings were visualized with propidium iodide (Sigma, P4170). Images were acquired using LSM800 or LSM700 (Zeiss) using a 20x lens. The GFP, YFP reporter and PI signals were detected with excitation at 488 nm and an emission filter of 410 to 546 nm, at 488 nm and an emission filter of 410 to 546 nm, and with excitation at 561 nm and 582–617 nm emission range, respectively. Raw data were collected with 1024 × 1024 pixel images. For qualitative image presentation, Adobe Photoshop CC was used to trim and uniformly adjust the contrast/brightness.\nFor quantitative analysis of the abaxial leaf epidermis, confocal images were taken on the days after germination as indicated in the Figure legends. Preparation of images was done as described previously[32],[70]. For counting epidermal cell types, stomatal density, stomatal precursor cells (meristemoids), total stomata-lineage cells (stomata and meristemoids) were calculated by counting cell types in an area of 0.4 mm^2 (0.63 mm × 0.63 mm) and plotted as per mm^2. A series of Z-stack confocal images was obtained to obtain images covering the epidermis and capturing GFP/YFP signal from the reporter lines. The area and the number of epidermal cells were quantified by using FIJI-ImageJ. Statistical analyses were performed using R ver. 4.0.2. Sample sizes (n) are indicated and defined in each legend. For the multiple sample comparison, 1-way ANOVA was performed followed by a post hoc Tukey HSD test. For the two-sample comparison, Student’s T-test was performed. Graphs were generated using R ggplot2 package. For all boxplots, each box represents IQR (interquartile range), in which top, middle line, and bottom indicating 75, 50, and 25 percentiles, respectively, and the bar representing maximum to minimal values. Each magenta dot represents jittered individual data point. The datapoints that go beyond the bar are outliers, which are indicated as black dots. If the data point is greater than Q3 + 1.5*IQR (above the third quartile is greater than 1.5 times of the interquartile range) or less than Q1 − 1.5*IQR, that data point is classified as outlier. The color of Boxplot graph was based on ColorBrewer.org. The value of n, the number of each experiment or samples, the means of error bars, and how statistical significance was defined are indicated in a relevant figure legend. […]"}, "[2]": {"biological_target": "T1, SCRM-FAMA heterodimer (Arabidopsis thaliana, UniProt Q56YJ8)", "T1 construct": "truncated SPCH and FAMA proteins lacking their N-terminal domain were used in yeast; expressed in transfected cells; host or cells: yeast strain AH109", "T1 sequence (Q56YJ8 190-414, one chain of several)": "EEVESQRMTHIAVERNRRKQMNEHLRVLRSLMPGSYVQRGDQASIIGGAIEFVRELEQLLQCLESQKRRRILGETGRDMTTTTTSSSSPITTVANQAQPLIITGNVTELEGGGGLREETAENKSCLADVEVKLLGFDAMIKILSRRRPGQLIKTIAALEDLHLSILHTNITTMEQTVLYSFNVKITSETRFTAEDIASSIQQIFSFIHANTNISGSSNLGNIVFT", "assay": "Y2H growth and quantitative α-galactosidase assay", "assay_type": "cell-based", "conditions": "50 μM; 1 mM 3-AT; N-terminally truncated FAMA", "procedure": "(§1) Y2H assays were performed using the Matchmaker^TM Two-Hybrid System (Clontech). Bait (pGBKT7) and prey (pGADT7) constructs were co-transformed into the yeast strain AH109 using Frozen-EZ Yeast Transformation II Kit (Zymo Research, T2001). The resulting transformants were spotted on SD ( − Leu, −Trp) and SD ( − Trp, −Leu, −His) selection media containing different concentrations of 3-amino-1,2,4-triazole (Sigma, A8056) as previously reported. Quantitative α-galactosidase assay was also performed according to manufactural instruction (Clontech). Briefly, the transformants were incubated in 2 ml SD medium with 0, 10, 50 100 μM Stomidazolone (3) or SIM3* (7) with rotary shake (220 rpm) at 30 °C overnight. The cultured media containing yeast were transferred to microtubes and centrifuged to obtain the supernatant. The colorimetric assay was performed by incubating 8 μL of supernatant with 24 μL Assay Buffer that contains 0.5 M sodium acetate (pH 4.5) (Nakalai tesque, 31137-25): 100 mM p-nitrophenyl α-D-Galactopyranoside Solution (Sigma N0877) = 2:1 (v/v) at 30 °C for 60 min, then terminated by adding 960 μL 1X Stop Solution (0.1 M sodium carbonate, Fujifilm Wako 195-01582). After OD410 was recorded, α-galactosidase units were calculated according to the protocol (Clontech, P3024-1)."}, "[3]": {"biological_target": "T2, SCRM-MUTE heterodimer (Arabidopsis thaliana, UniProt Q9M8K6)", "T2 construct": "expressed in transfected cells; host or cells: yeast strain AH109", "T2 sequence (Q9M8K6 1-202)": "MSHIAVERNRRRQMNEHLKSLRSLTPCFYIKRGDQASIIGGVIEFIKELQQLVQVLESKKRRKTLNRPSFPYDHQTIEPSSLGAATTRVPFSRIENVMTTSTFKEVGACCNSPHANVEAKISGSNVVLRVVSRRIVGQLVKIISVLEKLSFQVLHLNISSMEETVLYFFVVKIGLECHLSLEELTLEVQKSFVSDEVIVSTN", "assay": "Y2H growth and quantitative α-galactosidase assay", "assay_type": "cell-based", "conditions": "50 μM; 1 mM 3-AT", "procedure": "as §1"}, "[4]": {"biological_target": "T3, SCRM-SPCH heterodimer (Arabidopsis thaliana, UniProt Q700C7)", "T3 construct": "truncated SPCH and FAMA proteins lacking their N-terminal domain were used in yeast; expressed in transfected cells; host or cells: yeast strain AH109", "T3 sequence (Q700C7 98-364 limits assumed)": "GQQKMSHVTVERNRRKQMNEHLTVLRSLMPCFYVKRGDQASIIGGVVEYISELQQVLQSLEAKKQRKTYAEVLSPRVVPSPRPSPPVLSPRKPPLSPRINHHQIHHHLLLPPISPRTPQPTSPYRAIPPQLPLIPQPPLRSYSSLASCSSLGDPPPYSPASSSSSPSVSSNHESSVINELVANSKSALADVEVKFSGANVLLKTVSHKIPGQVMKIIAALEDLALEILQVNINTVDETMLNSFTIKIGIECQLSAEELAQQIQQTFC", "assay": "Y2H growth and quantitative α-galactosidase assay", "assay_type": "cell-based", "conditions": "50 μM; 1 mM 3-AT; N-terminally truncated SPCH", "procedure": "as §1"}, "[5]": {"tested_on": "stomatal movement", "design": "method as in PMID 35042960", "conditions": "previous chemical screens and SAR studies; cited from earlier work"}, "[6]": {"biological_target": "B2", "assay": "ITC; SCRM to MUTE in the presence of AYSJ1059 (5); Malvern PEAQ-ITC; PBS with 2% DMSO and 1 mM DTT; methods: 30 °C, pH 7.4; legend of Supplementary Table 2: pH 7.2, 25 °C", "conditions": "both partners purified"}, "[7]": {"biological_target": "B2", "assay": "ITC; SCRM to MUTE in the presence of AYSJ1061 (6); Malvern PEAQ-ITC; PBS with 2% DMSO and 1 mM DTT; methods: 30 °C, pH 7.4; legend of Supplementary Table 2: pH 7.2, 25 °C", "conditions": "both partners purified"}, "[8]": {"biological_target": "B2", "assay": "ITC; SCRM to MUTE pre-incubated with Stomidazolone (3); Malvern PEAQ-ITC; PBS with 2% DMSO and 1 mM DTT; methods: 30 °C, pH 7.4; legend of Supplementary Table 2: pH 7.2, 25 °C", "conditions": "both partners purified"}, "[9]": {"biological_target": "B2", "assay": "ITC; SCRM to MUTE, no compound; Malvern PEAQ-ITC; PBS with 2% DMSO and 1 mM DTT; methods: 30 °C, pH 7.4; legend of Supplementary Table 2: pH 7.2, 25 °C; means of two experiments", "conditions": "both partners purified"}, "[10]": {"biological_target": "B1", "assay": "ITC; SCRM to MUTE in the presence of AYSJ1059 (5); Malvern PEAQ-ITC; PBS with 2% DMSO and 1 mM DTT; methods: 30 °C, pH 7.4; legend of Supplementary Table 2: pH 7.2, 25 °C", "conditions": "both partners purified"}, "[11]": {"biological_target": "B1", "assay": "ITC; SCRM to MUTE in the presence of AYSJ1061 (6); Malvern PEAQ-ITC; PBS with 2% DMSO and 1 mM DTT; methods: 30 °C, pH 7.4; legend of Supplementary Table 2: pH 7.2, 25 °C", "conditions": "both partners purified"}}, "data": [{"molecule": "Cc1nc(-c2ccccc2)c(NS(=O)(=O)c2ccccc2)o1", "note": "[SIM3*, reference compound]", "values": [{"measurement": "effect on stomatal development (in words)", "setting": "[1]", "value": "no effects"}, {"measurement": "effect on association in Y2H growth assay", "setting": "[2]", "value": "no effects"}, {"measurement": "effect on association in Y2H growth assay", "setting": "[3]", "value": "no effects"}, {"measurement": "effect on association in Y2H growth assay", "setting": "[4]", "value": "no effects"}, {"measurement": "effect on stomatal movement (in words)", "setting": "[5]", "value": "inhibit stomatal movement"}]}, {"molecule": "B1", "values": [{"measurement": "stoichiometry N", "setting": "[6]", "value": 1}, {"measurement": "stoichiometry N", "setting": "[7]", "value": 1.1}, {"measurement": "stoichiometry N", "setting": "[8]", "value": 0.91}, {"measurement": "stoichiometry N", "setting": "[9]", "value": 0.96}]}, {"molecule": "B2", "values": [{"measurement": "Kd", "setting": "[10]", "value": "9.6 ± 1.8", "unit": "nM"}, {"measurement": "Kd", "setting": "[11]", "value": "11.4 ± 2.1", "unit": "nM"}]}]}
